Tests used:
Conditions in all cases: protein: ivt; label: radiolabelled (EMSA); 5' overhang 4 nt on each strand
Su(H) S269A = Su(H) S269A (Drosophila melanogaster, UniProt P28159 1-594, S269A); assay: EMSA; no obvious difference from wt; self-competition with unlabelled oligo; EMSA: 10 mM Tris-HCl pH 7.5, 50 mM NaCl, 1 mM EDTA, 0.0275 ug/ul salmon sperm DNA; ITC: 50 mM sodium phosphate pH 6.5, 150 mM NaCl, 10 C, 10 uM Su(H) in cell, 100 uM DNA in syringe
Su(H) wt = Su(H) wt (Drosophila melanogaster, UniProt P28159 1-594); assay: EMSA; self-competition with unlabelled oligo; EMSA: 10 mM Tris-HCl pH 7.5, 50 mM NaCl, 1 mM EDTA, 0.0275 ug/ul salmon sperm DNA; ITC: 50 mM sodium phosphate pH 6.5, 150 mM NaCl, 10 C, 10 uM Su(H) in cell, 100 uM DNA in syringe
Su(H) R266H = Su(H) R266H (Drosophila melanogaster, UniProt P28159 1-594, R266H); assay: EMSA; EMSA: 10 mM Tris-HCl pH 7.5, 50 mM NaCl, 1 mM EDTA, 0.0275 ug/ul salmon sperm DNA; ITC: 50 mM sodium phosphate pH 6.5, 150 mM NaCl, 10 C, 10 uM Su(H) in cell, 100 uM DNA in syringe
Su(H) R266H, sequence (P28159 whole entry R266H): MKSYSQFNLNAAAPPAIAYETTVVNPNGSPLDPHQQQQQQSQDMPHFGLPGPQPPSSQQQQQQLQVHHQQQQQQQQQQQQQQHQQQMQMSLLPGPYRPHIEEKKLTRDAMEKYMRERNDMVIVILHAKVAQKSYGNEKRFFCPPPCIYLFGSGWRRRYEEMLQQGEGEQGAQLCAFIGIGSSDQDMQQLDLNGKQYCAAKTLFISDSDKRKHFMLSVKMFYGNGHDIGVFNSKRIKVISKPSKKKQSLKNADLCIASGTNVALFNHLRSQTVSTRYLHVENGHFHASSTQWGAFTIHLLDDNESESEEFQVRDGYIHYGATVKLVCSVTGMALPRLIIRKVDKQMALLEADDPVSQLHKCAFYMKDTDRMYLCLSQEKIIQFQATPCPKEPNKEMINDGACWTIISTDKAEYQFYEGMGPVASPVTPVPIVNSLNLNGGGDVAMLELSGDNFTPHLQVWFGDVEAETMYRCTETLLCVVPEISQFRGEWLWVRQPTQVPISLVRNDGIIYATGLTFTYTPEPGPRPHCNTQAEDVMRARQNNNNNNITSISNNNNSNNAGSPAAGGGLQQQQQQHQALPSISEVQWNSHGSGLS

Su(H) S269A, sequence (P28159 whole entry S269A): as the sequence (P28159 whole entry R266H) above, with H266R, S269A counted along it
Su(H) wt, sequence (P28159 whole entry): as the sequence (P28159 whole entry R266H) above, with H266R counted along it

B1: E(spl)m8-S1 (dsDNA)
DNA 1: TTGGGTGGCTCGTGGCGTGGGAACCGAGCTGAAAG
DNA 2: GGTTCTTTCAGCTCGGTTCCCACGCCACGAGCCAC
B1: binds (Su(H) S269A); binds (Su(H) wt); no binding (Su(H) R266H).

Reference: article PMC5605572, “Phosphorylation of Suppressor of Hairless impedes its DNA-binding activity”
